Data on one substance can be found in paper PMC12568027.

What is called stoichiometry N is a count of units in the complex or per binding partner.

The target in the assay is HIV-2 GL-AN CA P14C/E45C/W184A/M185A (HIV-2 GL-AN).

In turn, “HIV-2 GL-AN CA P14C/E45C/W184A/M185A (natural protein)” registered a stoichiometry N of 6.
